Results reported in patent US20250189530A1 (STCUBE, published 2025).

Tests used:
BTN1A1 Peptide 4 [1] = molecular target: T1, BTN1A1 Peptide 4 (human); assay: ELISA clone screen, STCube
T1 construct: also called BTN1A1-pep4- WT; Pep4
T1 peptide: EVEVGDRTDWAIGVC

denatured hBTN1A1 ICD [2] = molecular target: T2, denatured hBTN1A1 ICD (human, UniProt Q13410 270-526); assay: ELISA clone screen, STCube
T2 construct: Same protein as hBTN1A1 ICD, denatured before the ELISA; also called hBTN1A1 ICD denatured; Denatured ICD
T2 sequence: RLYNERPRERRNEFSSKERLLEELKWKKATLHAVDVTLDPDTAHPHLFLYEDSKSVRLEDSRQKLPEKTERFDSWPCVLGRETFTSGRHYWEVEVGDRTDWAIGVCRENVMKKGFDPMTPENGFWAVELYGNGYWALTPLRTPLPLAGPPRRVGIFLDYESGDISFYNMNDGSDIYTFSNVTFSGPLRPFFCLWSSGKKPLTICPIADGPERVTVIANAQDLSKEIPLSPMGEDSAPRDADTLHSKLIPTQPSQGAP

hBTN1A1 ICD [3] = molecular target: T3, hBTN1A1 ICD (human, UniProt Q13410 270-526); assay: ELISA clone screen, STCube
T3 sequence: T2 sequence

BTN1A1 Peptide 4 [4] = molecular target: T1, BTN1A1 Peptide 4; assay: kinetics of peptide on STC43H11-1, separate assay, method not named
TRIM11 peptide = molecular target: T4, TRIM11 peptide; assay: as above
T4 peptide: EVEVGDRTSWALGVC

BTN1A1 Peptide 4 [5] = molecular target: T1, BTN1A1 Peptide 4; assay: ELISA, 10X dilution
denatured hBTN1A1 ICD [6] = molecular target: T2, denatured hBTN1A1 ICD; assay: ELISA, 10X dilution
hBTN1A1 ICD [7] = molecular target: T3, hBTN1A1 ICD; assay: ELISA, 10X dilution
[8] = molecular target: T5, CILK1 peptide AQPVHGRTDWASKYA; assay: SPR sensorgrams (Response in RU), 15.625, 31.25, 62.5, 125 and 500 nM
T5 construct: also called serine/threonine-protein kinase ICK (CILK) isoform 2 peptide
T5 peptide: AQPVHGRTDWASKYA

mouse BTN1A1 = molecular target: T6, mouse BTN1A1 (mouse, UniProt Q62556 27-524, limits assumed); assay: immunohistochemistry, 2 ug/mL
T6 construct: also called mBTN1A1
T6 sequence (looked up): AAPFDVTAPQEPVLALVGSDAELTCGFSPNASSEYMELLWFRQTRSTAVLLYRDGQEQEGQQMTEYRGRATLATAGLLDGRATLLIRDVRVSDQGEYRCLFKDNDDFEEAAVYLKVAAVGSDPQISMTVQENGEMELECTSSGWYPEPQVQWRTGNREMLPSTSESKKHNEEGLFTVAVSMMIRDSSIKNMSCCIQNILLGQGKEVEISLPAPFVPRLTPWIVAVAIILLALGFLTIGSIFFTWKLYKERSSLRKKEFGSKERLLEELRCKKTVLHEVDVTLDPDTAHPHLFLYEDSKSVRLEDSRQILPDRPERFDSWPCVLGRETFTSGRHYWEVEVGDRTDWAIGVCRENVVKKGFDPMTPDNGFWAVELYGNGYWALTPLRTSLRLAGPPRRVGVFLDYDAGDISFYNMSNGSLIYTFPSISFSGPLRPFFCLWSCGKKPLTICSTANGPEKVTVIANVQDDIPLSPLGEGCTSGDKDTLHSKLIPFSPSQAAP
Description: […]

BTN1A1 Peptide 4 [9] = molecular target: T1, BTN1A1 Peptide 4; assay: ELISA, stock solution
denatured hBTN1A1 ICD [10] = molecular target: T2, denatured hBTN1A1 ICD; assay: ELISA, stock solution
hBTN1A1 ICD [11] = molecular target: T3, hBTN1A1 ICD; assay: ELISA, stock solution
BTN1A1 Peptide 4 [12] = molecular target: T1, BTN1A1 Peptide 4; assay: ELISA clone screen, GenScript
denatured hBTN1A1 ICD [13] = molecular target: T2, denatured hBTN1A1 ICD; assay: ELISA clone screen, GenScript
hBTN1A1 ICD [14] = molecular target: T3, hBTN1A1 ICD; assay: ELISA clone screen, GenScript

ELISA signal (BTN1A1 Peptide 4 [1]): 0.945
ELISA signal (denatured hBTN1A1 ICD [2]): 0.111
ELISA signal (hBTN1A1 ICD [3]): 1.98
Kd (BTN1A1 Peptide 4 [4]): 0.0844 nM
koff (BTN1A1 Peptide 4 [4]): 1.62e-05 s⁻¹
kon (BTN1A1 Peptide 4 [4]): 192000 M⁻¹ s⁻¹
Kd (TRIM11 peptide): 621 nM
koff (TRIM11 peptide): 0.1 s⁻¹
kon (TRIM11 peptide): 162000 M⁻¹ s⁻¹
ELISA signal (BTN1A1 Peptide 4 [5]): 2.83
ELISA signal (denatured hBTN1A1 ICD [6]): 2.9
ELISA signal (hBTN1A1 ICD [7]): 2.96
binding result [8]: no binding (tested: 500 nM)
binding result (mouse BTN1A1): binds
ELISA signal (BTN1A1 Peptide 4 [9]): 2.88
ELISA signal (denatured hBTN1A1 ICD [10]): 2.87
ELISA signal (hBTN1A1 ICD [11]): 2.93
ELISA signal (BTN1A1 Peptide 4 [12]): 0.609
ELISA signal (denatured hBTN1A1 ICD [13]): 2.27
ELISA signal (hBTN1A1 ICD [14]): 1.6
B1: STC43H11-1 (antibody, V domains shown)
VH: QSLEESGGRLVTPGGSLTLTCTVSGIDLSSYAMGWVRQAPGEGLEWIGSIGTGGGTGYASWAKGRFTISKTSTTVDLKMTSLTASDTATYFCATSNLWGPGTLVTVSS
VL: QVLTQTASPVSAAVGGTVTINCQASQSVYNNNRCSWFQQKPGQPPKRLIYHTSTLDSGVPSRFKGSGSGTQFTLTISDVQCDDAATYYCLGNYDCSRADCAAFGGGTEVVVK
notes: From immunized New Zealand rabbits; IgG heavy chain and Kappa light chain; also called clone #43H11; Clone 43H11
